Assay results: publication doi:10.1101/192500 (bioRxiv, 2018)
Where a chain is given by its changes, count along the chain named. Names and notes keep the numbering of the source.

B1: MlaA_(D61-K124) peptide (domain or fragment, E. coli, UniProt P76506 61-124, looked up)
chain: DYVPQPARNGLSNFTGNLEEPAVMVNYFLQGDPYQGMVHFTRFFLNTILGMGGFIDVAGMANPK
B2: OmpC (wild type, in the purified OmpC-MlaA-His complex) (natural protein, E. coli)
chain: AEVYNKDGNKLDLYGKVDGLHYFSDNKDVDGDQTYMRLGFKGETQVTDQLTGYGQWEYQIQGNSAENENNSWTRVAFAGLKFQDVGSFDYGRNYGVVYDVTSWTDVLPEFGGDTYGSDNFMQQRGNGFATYRNTDFFGLVDGLNFAVQYQGKNGNPSGEGFTSGVTNNGRDALRQNGDGVGGSITYDYEGFGIGGAISSSKRTDAQNTAAYIGNGDRAETYTGGLKYDANNIYLAAQYTQTYNATRVGSLGWANKAQNFEAVAQYQFDFGLRPSLAYLQSKGKNLGRGYDDEDILKYVDVGATYYFNKNMSTYVDYKINLLDDNQFTRDAGINTDNIVALGLVYQF
B3: OmpCG19W/R92L (natural protein, E. coli, UniProt P06996 22-367, looked up)
chain: B2 chain with G19W, R92L
B4: OmpC_(G19W) (natural protein, E. coli, UniProt P06996 22-367, looked up)
chain: B2 chain with G19W
B5: OmpC_(R92L) (natural protein, E. coli, UniProt P06996 22-367, looked up)
chain: B2 chain with R92L
B6: OmpC_(R92A) (natural protein, E. coli, UniProt P06996 22-367, looked up)
chain: B2 chain with R92A

Legend:
[1] = target: B2; assay: SEC
[2] = target: MlaA-His (from dmlaA-His plasmids, in purified OmpC-MlaA-His complexes) (E. coli) (UniProt P76506); assay: SEC-MALS
Chain of MlaA-His (from dmlaA-His plasmids, in purified OmpC-MlaA-His complexes) (E. coli) (P76506 18-251, one chain of several): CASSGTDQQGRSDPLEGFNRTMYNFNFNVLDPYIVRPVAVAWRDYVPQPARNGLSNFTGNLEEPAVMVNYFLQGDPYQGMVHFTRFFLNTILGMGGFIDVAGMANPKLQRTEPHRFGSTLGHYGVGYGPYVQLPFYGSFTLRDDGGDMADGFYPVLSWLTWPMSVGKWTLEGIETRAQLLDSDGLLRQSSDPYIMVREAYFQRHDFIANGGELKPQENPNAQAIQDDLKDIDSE

SEC-MALS = target: the molecule itself; assay: SEC-MALS
[3] = target: the molecule itself; assay: temperature titration with SDS-PAGE

| Binder | binding result [3] | other results |
| --- | --- | --- |
| B1 | – | binding result [1]: binds |
| B2 | – | stoichiometry N (MlaA per OmpC trimer) [2]: 1; stoichiometry N (SEC-MALS): 3 |
| B3 | binds | – |
| B4 | binds | – |
| B5 | binds | – |
| B6 | binds | – |
